In patent US20140179604A1 (U S A REPRESENTED BY THE DEPARTMENT OF VETERANS AFFAIRS, published 2014):
Blank lines part the entries; values can stand above or below the molecule they belong to. Non-standard residues stand in square brackets, D forms with d. No end group written: not given here. *: point of attachment. Desaminotyrosyl = O=C(CCc1ccc(O)cc1)*; NMeY = CN[C@@H](Cc1ccc(O)cc1)C(=O)O; hArg = N=C(N)NCCCC[C@H](N)C(=O)O; Nle = CCCC[C@H](N)C(=O)O; Orn = NCCC[C@H](N)C(=O)O; Abu = CC[C@H](N)C(=O)O; Aoc = NCCCCCCCC(=O)O; Ava = NCCCCC(=O)O

What was measured:
[1] = biological target: T1, GHRH receptor (membrane receptors of human anterior pituitary cells) (human) (UniProt Q02643); assay: competition with 125I-JV-1-42, human pituitary membranes
T1 sequence (looked up): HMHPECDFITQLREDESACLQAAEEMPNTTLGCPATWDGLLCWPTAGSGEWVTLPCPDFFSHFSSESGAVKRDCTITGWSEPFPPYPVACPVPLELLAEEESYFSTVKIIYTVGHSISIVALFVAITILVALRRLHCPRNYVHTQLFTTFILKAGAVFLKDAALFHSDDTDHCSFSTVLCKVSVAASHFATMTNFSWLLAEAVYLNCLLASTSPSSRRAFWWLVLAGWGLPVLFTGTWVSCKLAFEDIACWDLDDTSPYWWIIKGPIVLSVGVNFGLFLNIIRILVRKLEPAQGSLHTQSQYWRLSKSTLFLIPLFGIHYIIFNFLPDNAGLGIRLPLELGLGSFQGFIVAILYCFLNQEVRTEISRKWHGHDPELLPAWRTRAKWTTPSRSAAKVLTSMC

[2] = biological target: T1, GHRH receptor (membrane receptors of human anterior pituitary cells) (human); assay: competition with 125I-[His1,Nle27]hGHRH(1-32)NH2, human pituitary membranes
[3] = biological target: T2, GHRH receptor (membrane receptors of human anterior pituitary cells) (human, UniProt Q02643 23-423); assay: competition with [His1,125I-Tyr10,Nle27]hGHRH(1-32)NH2, human pituitary membranes
T2 construct: whole, on cells; Native receptor in a membrane fraction of purchased normal human pituitaries, not intact cells; also called hGHRH receptor; human pituitary membrane homogenates
T2 sequence (looked up): T1 sequence (looked up)
Description: Normal human pituitaries were purchased from the National Hormone and Peptide Program (A. F. Parlow, Los Angeles, County Harbor—UCLA Medical Center, Torrance, Calif.).

B1: P-23252 [Dat^1-D-Ala^2, Orn^12, Abu^15, Orn^21, Nle^27, Asp^28, Har^30]hGHRH(1-30)NH2 (peptide)
peptide: [Desaminotyrosyl][dA]DAIFTNSYR[Orn]VL[Abu]QLSAR[Orn]LLQDI[Nle]DR[hArg]-NH2
SMILES: CCCC[C@H](NC(=O)[C@@H](NC(=O)[C@H](CC(=O)O)NC(=O)[C@H](CCC(N)=O)NC(=O)[C@H](CC(C)C)NC(=O)[C@H](CC(C)C)NC(=O)[C@H](CCCN)NC(=O)[C@H](CCCNC(=N)N)NC(=O)[C@H](C)NC(=O)[C@H](CO)NC(=O)[C@H](CC(C)C)NC(=O)[C@H](CCC(N)=O)NC(=O)[C@H](CC)NC(=O)[C@H](CC(C)C)NC(=O)[C@@H](NC(=O)[C@H](CCCN)NC(=O)[C@H](CCCNC(=N)N)NC(=O)[C@H](Cc1ccc(O)cc1)NC(=O)[C@H](CO)NC(=O)[C@H](CC(N)=O)NC(=O)[C@@H](NC(=O)[C@H](Cc1ccccc1)NC(=O)[C@@H](NC(=O)[C@H](C)NC(=O)[C@H](CC(=O)O)NC(=O)[C@@H](C)NC(=O)CCc1ccc(O)cc1)[C@@H](C)CC)[C@@H](C)O)C(C)C)[C@@H](C)CC)C(=O)N[C@@H](CC(=O)O)C(=O)N[C@@H](CCCNC(=N)N)C(=O)N[C@@H](CCCCNC(=N)N)C(N)=O
notes: also called Peptide 23252
IC50 [3]: 0.14 nM
Relative affinity (Binding potency) vs GHRH [3]: 42.3 GHRH(1-29) = 1
Relative affinity (Binding potency) vs JI-38 [3]: 13.9 JI-38 = 1

B2: P-21304 [Dat^1, D-Ala^2, Gln^8, Orn^12, Abu^15, Orn^21, Nle^27, Asp^28, Amc^30]hGHRH(1-30)NH2 (peptide)
peptide: [Desaminotyrosyl][dA]DAIFTQSYR[Orn]VL[Abu]QLSAR[Orn]LLQDI[Nle]DR[Aoc]-NH2
SMILES: CCCC[C@H](NC(=O)[C@@H](NC(=O)[C@H](CC(=O)O)NC(=O)[C@H](CCC(N)=O)NC(=O)[C@H](CC(C)C)NC(=O)[C@H](CC(C)C)NC(=O)[C@H](CCCN)NC(=O)[C@H](CCCNC(=N)N)NC(=O)[C@H](C)NC(=O)[C@H](CO)NC(=O)[C@H](CC(C)C)NC(=O)[C@H](CCC(N)=O)NC(=O)[C@H](CC)NC(=O)[C@H](CC(C)C)NC(=O)[C@@H](NC(=O)[C@H](CCCN)NC(=O)[C@H](CCCNC(=N)N)NC(=O)[C@H](Cc1ccc(O)cc1)NC(=O)[C@H](CO)NC(=O)[C@H](CCC(N)=O)NC(=O)[C@@H](NC(=O)[C@H](Cc1ccccc1)NC(=O)[C@@H](NC(=O)[C@H](C)NC(=O)[C@H](CC(=O)O)NC(=O)[C@@H](C)NC(=O)CCc1ccc(O)cc1)[C@@H](C)CC)[C@@H](C)O)C(C)C)[C@@H](C)CC)C(=O)N[C@@H](CC(=O)O)C(=O)N[C@@H](CCCNC(=N)N)C(=O)NCCCCCCCC(N)=O
notes: also called Peptide 21304
IC50 [3]: 0.08 nM
Relative affinity (Binding potency) vs GHRH [3]: 74 GHRH(1-29) = 1
Relative affinity (Binding potency) vs JI-38 [3]: 24.4 JI-38 = 1

B4: P-27413 [Dat^1, Gln^8, His^11, Orn^12, Abu^15, His^20, Orn^21, Nle^27, Asp^28]hGHRH(1-29)NH-CH3 (peptide, from a related filing)
peptide: [Desaminotyrosyl]ADAIFTQSYH[Orn]VL[Abu]QLSAH[Orn]LLQDI[Nle]DR-NHMe
SMILES: CCCC[C@H](NC(=O)[C@@H](NC(=O)[C@H](CC(=O)O)NC(=O)[C@H](CCC(N)=O)NC(=O)[C@H](CC(C)C)NC(=O)[C@H](CC(C)C)NC(=O)[C@H](CCCN)NC(=O)[C@H](Cc1c[nH]cn1)NC(=O)[C@H](C)NC(=O)[C@H](CO)NC(=O)[C@H](CC(C)C)NC(=O)[C@H](CCC(N)=O)NC(=O)[C@H](CC)NC(=O)[C@H](CC(C)C)NC(=O)[C@@H](NC(=O)[C@H](CCCN)NC(=O)[C@H](Cc1c[nH]cn1)NC(=O)[C@H](Cc1ccc(O)cc1)NC(=O)[C@H](CO)NC(=O)[C@H](CCC(N)=O)NC(=O)[C@@H](NC(=O)[C@H](Cc1ccccc1)NC(=O)[C@@H](NC(=O)[C@H](C)NC(=O)[C@H](CC(=O)O)NC(=O)[C@H](C)NC(=O)CCc1ccc(O)cc1)[C@@H](C)CC)[C@@H](C)O)C(C)C)[C@@H](C)CC)C(=O)N[C@@H](CC(=O)O)C(=O)N[C@@H](CCCNC(=N)N)C(=O)NC
IC50 [1]: 2.45 nM
Relative affinity (Binding potency) vs JI-38 [1]: 1.78 JI-38 = 1

Molecule: [NMeY]ADAIFTQSYR[Orn]VL[Abu]QLSAR[Orn]LLQDI[Nle]DR-NHMe (peptide, from a related filing) [P-27406 [N-Me-Tyr^1, Gln^8, Orn^12, Abu^15, Orn^21, Nle^27, Asp^28]hGHRH(1-29)NH-CH3]
IC50 [1]: 0.3 nM
Relative affinity (Binding potency) vs JI-38 [1]: 14.5 JI-38 = 1
IC50 [2]: 0.93 nM
Relative affinity (Binding potency) compared to JI-38 [2]: 2.95 JI-38 = 1
Relative affinity (Binding potency) compared to hGHRH(1-29) (hGHRH(1-29)NH2 = 1) [2]: 8.22

B6: P-27407 [Dat^1, Gln^8, Orn^12, Abu^15, Orn^21, Nle^27, Asp^28]hGHRH(1-29)NH-CH3 (peptide, from a related filing)
peptide: [Desaminotyrosyl]ADAIFTQSYR[Orn]VL[Abu]QLSAR[Orn]LLQDI[Nle]DR-NHMe
SMILES: CCCC[C@H](NC(=O)[C@@H](NC(=O)[C@H](CC(=O)O)NC(=O)[C@H](CCC(N)=O)NC(=O)[C@H](CC(C)C)NC(=O)[C@H](CC(C)C)NC(=O)[C@H](CCCN)NC(=O)[C@H](CCCNC(=N)N)NC(=O)[C@H](C)NC(=O)[C@H](CO)NC(=O)[C@H](CC(C)C)NC(=O)[C@H](CCC(N)=O)NC(=O)[C@H](CC)NC(=O)[C@H](CC(C)C)NC(=O)[C@@H](NC(=O)[C@H](CCCN)NC(=O)[C@H](CCCNC(=N)N)NC(=O)[C@H](Cc1ccc(O)cc1)NC(=O)[C@H](CO)NC(=O)[C@H](CCC(N)=O)NC(=O)[C@@H](NC(=O)[C@H](Cc1ccccc1)NC(=O)[C@@H](NC(=O)[C@H](C)NC(=O)[C@H](CC(=O)O)NC(=O)[C@H](C)NC(=O)CCc1ccc(O)cc1)[C@@H](C)CC)[C@@H](C)O)C(C)C)[C@@H](C)CC)C(=O)N[C@@H](CC(=O)O)C(=O)N[C@@H](CCCNC(=N)N)C(=O)NC
IC50 [1]: 3 nM
Relative affinity (Binding potency) vs JI-38 [1]: 1.45 JI-38 = 1
IC50 [2]: 5.01 nM
Relative affinity (Binding potency) compared to JI-38 [2]: 0.54 JI-38 = 1
Relative affinity (Binding potency) compared to hGHRH(1-29) (hGHRH(1-29)NH2 = 1) [2]: 1.52

Molecule: [NMeY]ADAIFTQSYR[Orn]VL[Abu]QLSAR[Orn]LLQDI[Nle]SR-NHMe (peptide, from a related filing) [P-27405 [N-Me-Tyr^1, Gln^8, Orn^12, Abu^15, Orn^21, Nle^27]hGHRH(1-29)NH-CH3]
IC50 [1]: 1.08 nM
Relative affinity (Binding potency) vs JI-38 [1]: 4.03 JI-38 = 1
IC50 [2]: 2.51 nM
Relative affinity (Binding potency) compared to JI-38 [2]: 1.09 JI-38 = 1
Relative affinity (Binding potency) compared to hGHRH(1-29) (hGHRH(1-29)NH2 = 1) [2]: 3.04

More lines, now with the values ahead:

IC50 [1]: 0.87 nM
Relative affinity (Binding potency) vs JI-38 [1]: 5 JI-38 = 1
IC50 [2]: 1.12 nM
Relative affinity (Binding potency) compared to JI-38 [2]: 2.45 JI-38 = 1
Relative affinity (Binding potency) compared to hGHRH(1-29) (hGHRH(1-29)NH2 = 1) [2]: 6.83
Molecule: P-27404 [N-Me-Tyr^1, D-Ala^2, Fpa5^6, Orn^12, Abu^15, Orn^21, Nle^27, Asp^28]hGHRH(1-29)NH-CH3 (peptide)

IC50 [3]: 0.07 nM
Relative affinity (Binding potency) vs GHRH [3]: 84.5 GHRH(1-29) = 1
Relative affinity (Binding potency) vs JI-38 [3]: 27.8 JI-38 = 1
B3: P-23254 [Dat^1, D-Ala^2, Thr^8, Orn^12, Abu^15, Orn^21, Nle^27, Asp^28, Har^30]hGHRH(1-30)NH2 (peptide)
peptide: [Desaminotyrosyl][dA]DAIFTTSYR[Orn]VL[Abu]QLSAR[Orn]LLQDI[Nle]DR[hArg]-NH2
SMILES: CCCC[C@H](NC(=O)[C@@H](NC(=O)[C@H](CC(=O)O)NC(=O)[C@H](CCC(N)=O)NC(=O)[C@H](CC(C)C)NC(=O)[C@H](CC(C)C)NC(=O)[C@H](CCCN)NC(=O)[C@H](CCCNC(=N)N)NC(=O)[C@H](C)NC(=O)[C@H](CO)NC(=O)[C@H](CC(C)C)NC(=O)[C@H](CCC(N)=O)NC(=O)[C@H](CC)NC(=O)[C@H](CC(C)C)NC(=O)[C@@H](NC(=O)[C@H](CCCN)NC(=O)[C@H](CCCNC(=N)N)NC(=O)[C@H](Cc1ccc(O)cc1)NC(=O)[C@H](CO)NC(=O)[C@@H](NC(=O)[C@@H](NC(=O)[C@H](Cc1ccccc1)NC(=O)[C@@H](NC(=O)[C@H](C)NC(=O)[C@H](CC(=O)O)NC(=O)[C@@H](C)NC(=O)CCc1ccc(O)cc1)[C@@H](C)CC)[C@@H](C)O)[C@@H](C)O)C(C)C)[C@@H](C)CC)C(=O)N[C@@H](CC(=O)O)C(=O)N[C@@H](CCCNC(=N)N)C(=O)N[C@@H](CCCCNC(=N)N)C(N)=O
notes: also called Peptide 23254

IC50 [1]: 1.99 nM
Relative affinity (Binding potency) vs JI-38 [1]: 2.18 JI-38 = 1
IC50 [2]: 2.04 nM
Relative affinity (Binding potency) compared to JI-38 [2]: 1.34 JI-38 = 1
Relative affinity (Binding potency) compared to hGHRH(1-29) (hGHRH(1-29)NH2 = 1) [2]: 3.75
B5: P-22327 [Dat^1, Gln^8, Orn^12, Abu^15, Orn^21, Nle^27, Asp^28, Apa^30]hGHRH(1-30)NH2 (peptide, from a related filing)
peptide: [Desaminotyrosyl]ADAIFTQSYR[Orn]VL[Abu]QLSAR[Orn]LLQDI[Nle]DR[Ava]-NH2
SMILES: CCCC[C@H](NC(=O)[C@@H](NC(=O)[C@H](CC(=O)O)NC(=O)[C@H](CCC(N)=O)NC(=O)[C@H](CC(C)C)NC(=O)[C@H](CC(C)C)NC(=O)[C@H](CCCN)NC(=O)[C@H](CCCNC(=N)N)NC(=O)[C@H](C)NC(=O)[C@H](CO)NC(=O)[C@H](CC(C)C)NC(=O)[C@H](CCC(N)=O)NC(=O)[C@H](CC)NC(=O)[C@H](CC(C)C)NC(=O)[C@@H](NC(=O)[C@H](CCCN)NC(=O)[C@H](CCCNC(=N)N)NC(=O)[C@H](Cc1ccc(O)cc1)NC(=O)[C@H](CO)NC(=O)[C@H](CCC(N)=O)NC(=O)[C@@H](NC(=O)[C@H](Cc1ccccc1)NC(=O)[C@@H](NC(=O)[C@H](C)NC(=O)[C@H](CC(=O)O)NC(=O)[C@H](C)NC(=O)CCc1ccc(O)cc1)[C@@H](C)CC)[C@@H](C)O)C(C)C)[C@@H](C)CC)C(=O)N[C@@H](CC(=O)O)C(=O)N[C@@H](CCCNC(=N)N)C(=O)NCCCCC(N)=O
